# According to the DeepSol protein solubility set:
# Assay: soluble on expression in E. coli; label from the status in PepcDB or PDB records
row,Sequence,soluble on expression in E. coli
1,MKQKRLTFLLLLISNLFCASAQKWYKPEIDLKVEELLSQMTVEEKLGYIGGIDWMYTKSIDRLGIHRMRMSDGPQGIGTKGKSTAYPATVTLAATWNENLAYQYGKALGRDCRARNINVILGPAVNIYRAPMCGRNFEYMGEDPYLTSRICVGYIKGVQDQGVMATVKHFVANNSDYDRNNISNDIDERTLNEIYFPAYKAAIQEAEVGAIMTSYNLMNGIYTTENPWLLKEVLRNQWGFKGLVMSDWGSTHYCVPAARSGLDLEMAGGEKMNPKDMAYYLKTGDVTMDMVDEKVRHILRILIAFGFKDGTEADKSIALDDPQSVETA,not soluble
2,MSLTHEEAVAIHKEKMEALEMQMKLILVLDLDQTVLHTTYGTSSLEGTVKFVIDRCRYCVKLRPNLDYMLRRISKLYEIHVYTMGTRAYAERIVEIIDPSGKYFDDRIITRDENQGVLVKRLSRLFPHDHRNIVILDDRPDVWDYCENLVLIRPFWYFNRVDINDPLRLKRKIEKEAGENKALEEGHHHHHH,not soluble
3,GPGSMHPRLSGQGVFPRYGGGWMHQFGHVYALQQELLNAEANNWFRAMELWHTARHEGVAMNVSHYTNILRQCVPPTAWEASLMVLKQMRRENIRPDVVGVGCALAACADANRSEEVEKVFSCFSGKLKLDSICYLALIKAKMSRGGYAEALAVGREQDADGVPFLPHTYTHLLEAAEVADDGEMALELARRMSSEQWPVSDRGREALKKLSTRHHWEEVAEYKQFVAVEDHKLSLPPTLPRG,not soluble
4,GSHMRLGAQSIQPTANLDRTDDLVYLNVMELVRAVLELKNELAQLPPEGYVVVVKNVGLTLRKLIGSVDDLLPSLPSSSRTEIEGTQKLLNKDLAELINKMRLAQQNAVTSLSEECKRQMLTASHTLAVDAKNLLDAVDQAKVLANLAHPPAE,soluble
5,MKERMQKTSAQAHDFPQRARTESEWYEGVQTFMWMTEDNIVEVPFDKEHLLEIILSPSNLNKAYKAVVRNNGSGGIDKMSCEQLLSWLKANKDELIISLQSGTYRPNPVRRVEIPKDNGKKRLLGIPTVVDRLVQQAINQVLTLIYERQFSKTSYGFRPQRGCHDALRKAQKIVSEGYIYVVDLDLERFFDTVSHSKLIEILSRTIKDGRVISLIHKYLRSGVINRGMFEMSTEGTPQGGPLSPLLSNIMLNELDKELERRGHPFVRYADDAMIFCKSKRAAKRVRESITLFIEGKLFLKVNHEKTVVSYVKGVKFLGYSFYVKKGDCILLVHSKSKNKMKSKLKELTSRSNGWGYEKRKQKLKDYIRGWIAYFCLAQMKRLCIETDEWLRRRIRMCIWKSWKNAKTRVANLKKCGVSEWQAYQWGNTRLGYWRVSNSPIVTFVMSNDKLRKAGYMEFMDCYLKWCPKLEHHHHHH,soluble
6,MSLQEGQNRKTSSLSILAIAGVEPYQEKPGEEYMNEAQLSHFKRILEAWRNQLRDEVDRTVTHMQDEAANFPDPVDRAAQEEEFSLELRNRDRERKLIKKIEKTLKKVEDEDFGYCESCGVEIGIRRLEARPTADLCIDCKTLAEIREKQMAGEGGSHHHHHH,soluble
7,MGSDKIHHHHHHSCTQDSDTFYPSSPEEEHPSVDESRMIPIQLSVDGVDQFYGGAVTRSGETVARLVQPLDSTYDTGYDVETTVESIPLENIVSTRANLGNVQFRVVAYRTDASSADHYAGTAVYKTNGSGVAAIVAKTATPVNSAGQWILGPGTYTFVCYSYGLNSAPAMLSGNWSATVSHNQDFMLCRKEEVVVAPDDRGEFTLGGISFTRQCALLQLAVTANDFTNNTVQQCAATVSNLNSNNITWNAGQTALSTGGTGGAVNFSWSSLNAATVNSNVYKVLPQSSRTLTIKLTTLRIGNIQYNNRVTVNASGRQFAAGGNYKITVKITGNGITVGGATWAKGNVYKSGSNFYFESSQSGYHSGTQGGSFFGWNTLSSTNNTYGGSSFSSDNDPCYQVAPRGTWCTPTANQLQNLGNSGYRSGYLDGKRGGYFGGNKVFLPAMGNRGKNNVNYWPETGYYRSSTGASGKRCYYLEFNQSYAVKNNYYWYWDGFPIRCVKR,not soluble
8,MGALLKGRIYTMSVKTLKRTITAVAILAASVMSSSAWSNDLKEIRERGVLRHIGVPYANFVSYIEQGEMHTLTGLDVDIVKGFASSLGVRYEYVPAQWSDMVGKLTGQDVQYRHNRAVVGGSVPIEGDLIANGVTILDWREEVLDFSQDYFPSAVWLVSRTDSSLSPIKPSGSIDEDVKTVKELIDGREVLALEHSCLDPNLYDLYDTGAKVILPDGKRLLNEMVPAIMKNDAESTLLDVADTLIALEKWPG,not soluble
9,MAHHHHHHMVDDILKCIHNEFKYVLISCDINNEIKELTFKGSEEKFQNTLGSYFRRIIFDEKGKDELKESIKEKLKTNDKNDEDKEKVNTISPDIINNAIESSQTYQIIPLTIPNEKNDFLGINCYIDDIGRIKKLPYNSRASRICSTEIYGDAFLSKTYDNEDFKRCDFTISEYDEFLKNPPKSENRWDQAQAMQNLLKQMKGQNDAGVNDEAPTEKVNACEHCYKEQNLKRCGRCKKVYYCSVECQKSDYVFHKRICS,soluble
10,MGSDKIHHHHHHMLIQIADLFTPAEAAQIRARLEAADWVDGKVTAGYQSAQVKHNRQLSEQHPLAQELGGLILQRLAANNLFMSAALPRKIFPPLFNRYEGGEAFGYHVDNALRPVPGTAERVRTDLSATLFFSEPDSYDGGELVVDDTYGPRTVKLPAGHMVLYPGTSLHKVTPVTRGARISAFFWLQSLVREDSQRSLLLEMDVAIQRLNQDTPGHASIVQLTGVYHNLLRRWTDV,not soluble
11,MKAVQGDPNWNLVTDTYIEPNNFAELFSLLVPCHPKGEGKERTILVWKEKEFYKEENLAAFIVYGMNKAKKLPQFHKDEIPTLVRILRLCQEIGWYEEANDFMIAQGLAEFVHTSLEYETWDLLTQSVALNYLIIKYRIGELTDRDIEIWDRVKFNEKCITDCKHLLSHKEVLEFTFFYMCKRAKSLSKEQLNSDMMSLAMYCNTFVYDLYTHDLLRKYRKCTDFLSYYGPSQAVLACQRAVLSQISDRLDPLKTTHVDDYLYVMKEMMEHMTIGVMDRYGHFIGKLLSYVPFFEMIQVPQHAYYCEELLYICKGIEYKEETLRNYIFIQLHDCLPSFFRLFLKNKRYATIHDILFYWCDDEQRMSLEKKYNLSFIYEKYACG,not soluble
12,MSLTYHIKTIGNNIDQIALDEIGEGFLVNQVSEAESDAFICRAQPFHDYEFSKALLAIGRAGAGFNNIPIEKCASKGIVVFNAPGGNANAVKELVLSMMIFGTRNLKPANKWLTGQKGDDNTIDGAVEHGKKAFSGSEISGKTLGVIGLGNIGSKVANDAQRLGMRVIGYDPYLSIEHAWNLSHHVKRVNDLAEIFEKADYITVHTPATDETTKMLNWKNLSKCKKGVILLNYARDEITDKEAVLKAIDEGIVRFFGTDFGSEKFYHHPQVFLTPHLGGSTAEASLNCTRMALDSVQTYLKTGEIINSVNFPRVLQELNTPYRVTLINKNVPNVVAQISLAVAAENINIANIVNRGQGDYAYTLLDLDEKDEGKLAALVSRFEAADNIIRVRLIENQSLEGHHHHHH,soluble
13,MSFNDLYKASIYTMLGSIYAPSGGVIAAPTTSLPEVEGGKRNWDYRFAWVRDSSIIAEALLEAGSIVEARRIINFLLSLINFSSKPFYYPLYTIEGTIPPPERELRWLSGYKNSKPVRIGNGASSQIQLDIEGFFISALYKYVKMTNDQVFLKDVFSKVKYIGDWISENWSLKDSGIWEDRGSPQHYTHSKIMMWIALDKIGKLANLIGYADIWAKEREKLRNWIFTNCVKNNYFIRYCGNTDDVDSSLLSAPLYGFIEVSDSTFINTLTKIENDLKTDVFVKRYKTDFMGEAKHPFLLTTVWLARVYMRLGKIDSAIEILNKINKVSRELHLVGEHVDVEKGEFTGNFPQIFVHAQLVIAIKELNDTLTDKNIILEHHHHHH,not soluble
14,GSMAEGSAVSDPQHAARLLRALSSFREESRFCDAHLVLDGEEIPVQKNILAAASPYIRTKLNYNPPKDDGSTYKIELEGISVMVMREILDYIFSGQIRLNEDTIQDVVQAADLLLLTDLKTLCCEFLEGCIAAENCIGIRDFALHYCLHHVHYLATEYLETHFRDVSSTEEFLELSPQKLKEVISLEKLNVGNERYVFEAVIRWIAHDTEIRKVHMKDVMSALWVSGLDSSYLREQMLNEPLVREIVKECSNIPLS,soluble
15,MSSNLIRFVGNHDIASEGKFLFEILSQLRNFGVGRLVTKNEWTRKWPNNPSYMKILRAEPGMDRWLFEGKVYAEWVFRGKNLGVYEFSKDLNRSDWQLVHKHQEKSYTSSTTPMQDLVLPDSFPLPPLQVHLSQKSARKNGLDEKTVSRRAPLTLSVDPEFQHLKPFIKQEAPSTKSVSIYEEVDKNALLDLYGNELPVKVEAWNAGPAMFQPRFNATTMRVEEQPPK,not soluble
16,MSLKQQLIKNGLVLDMKGNHKPQAKDILIEGKWIRDIRPNIEPEVDTEIIDAEGKIVMPGFVDTHRHVWESLLRHIGTDWTLLTYLDNLYYGNLGSMLTPEDSYIANLWGALEAIDAGVTTVLDWSMLETPEHADASIKGLQAAGIRAVFAHGTPGYETYWSRDSEVRHPKDAKRVKKEYFQSDDQLLTMALAIRGPEFSSWEVTLDDIQLARELDAIASMHIGFGTWGPHDRSITRMREAGLLDSDLNLVHVNRIQPHEYEYIAESGASLSVTPEVEMMMGHGYPATGYLHKHRGLVTLGVDVVVATAGDMFAQMKFALQAERAWQNEQRLDRGEMPEQLKMTTNDVLTFATLNGAKALKLDDKIGTLDVGKEADLLLINPSSFNLFPLNHEPVGAVVQSARPENVDSVFIAGRPVKRHGKLLFDDLDGLRNKVLAASEAVFHRQAAKNEGHHHHHH,soluble
17,MSTSCFPDVPLELTTRHPRPLQACPERHSQSTHDSLGIWVKRREEKPMERMSKDYDIVQIPRDVGYSDLPRKMEVGKPFEINGSVYVCEKRGGEIMKICSEDSGRTGVPVLNKGFYVVRRM,not soluble
18,MSLSDNITIKDVRTYSVSAEGGGDYHLQEKGHWITDTYISNPMSMYPDYKKTRTSWGIGVLGSVVVEIELSNGIVGVATGLGGEPACWLIQHHFKRFLINQSPKNLNLIWDQMFKASMFYGRKGITICAISVVDLALWDSLGILRDEPVWQMIGGKVRDEIHFYCTGPLPVETRKMGFWGSKVPLPFGPGDGHEGLEKNYEYLKKHRDSVPEKFPLMVDCYMSLNVQYAIQLAKRCEDLNINWWEEVLHPDDIDGYKQIKLAHPDKKWTTGEHEYTRYGFRQLIETRSIDILQPDVMWVGGMTELLKISAMAAAYDLPVVPHGSGPYSSHFIFSQPHSPFCEYIAGSPDGKKVIKMFPYFDGEQLPENGKIKPSYDPGFGMKIANKDTLIEIKQNEGHHHHHH,soluble
19,MGGSHHHHHHGMASWPPPRCPLGVPLVLDGCGCCRVCARRLGEPCDQLHVCDASQGLVCQPGAGPGGRGALCLLAEDDSSCEVNGRLYREGETFQPHCSIRCRCEDGGFTCVPLCSEDVRLPSWDCPHPRRVEVLGKCCPEWVCGQGGGLGTQPLPAQGPQFSGLVSSLPPGVPCPEWSTAWGPCSTTCGLGMATRVSNQNRFCRLETQRRLCLSRPCPPSRGRSPQNSAF,not soluble
20,SLSVVAPAVYVGTWHKYNCGSIAGRWFDLTTFDDERDFFAACRALHQDEADPELMFQDYEGFPGNMASECHINWAWVEGFRQARDEGCEEAYRLWVEDTGETDFDTFRDAWWGEADSEEAFAVEFASDTGLLADVPETVALYFDYEAYARDLFLDSFTFIDGHVFRR,soluble
21,ISGGSSISMMYKYCSRLPHDEFFQPKPEFQFKPVDEFGGTICRITLPANAPISEIESSLLPSTEAAKKDACLKAVHELHNLGVLNDFLLPDSKDEIEDELSD,soluble
